In article PMC314469, “Protein Interaction Networks by Proteome Peptide Scanning” (PLoS Biology, 2004):
Each block holds one binder with its values, some of them ahead of it.

How the values were obtained:
[1] = target: T1, amphyphisin SH3 (AMPH_HUMAN), P49418; assay: SPOT array
T1 chain: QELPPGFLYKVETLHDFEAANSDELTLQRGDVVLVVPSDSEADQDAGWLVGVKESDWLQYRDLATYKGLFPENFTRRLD

[2] = target: endophilin SH3 (SH3G2_HUMAN), Q99962; assay: SPOT array

B2: P48788 102-115 (peptide)
chain: LRGKFKRPPLRRVR
normalised SPOT signal, Boehringer light units (BLU); mean over the file's lines of this peptide [1]: 35.8
normalised SPOT signal, Boehringer light units (BLU); mean over the file's lines of this peptide [2]: 50.6

B3: Q9P2E3 383-396 (peptide)
chain: LREDFVRPLREGIL
normalised SPOT signal, Boehringer light units (BLU); mean over the file's lines of this peptide [1]: 5300
normalised SPOT signal, Boehringer light units (BLU); mean over the file's lines of this peptide [2]: 208

B7: Q9NYU0 896-909 (peptide)
chain: LRRHPSRPMRQSRR
normalised SPOT signal, Boehringer light units (BLU); mean over the file's lines of this peptide [1]: 3450
normalised SPOT signal, Boehringer light units (BLU); mean over the file's lines of this peptide [2]: 412

B8: Q9NR56 294-307 (peptide)
chain: LPPLPKRPALEKTN
normalised SPOT signal, Boehringer light units (BLU); mean over the file's lines of this peptide [1]: 160
normalised SPOT signal, Boehringer light units (BLU); mean over the file's lines of this peptide [2]: 2280

B11: Q15653 147-160 (peptide)
chain: LQPRPRRPREAPDT
normalised SPOT signal, Boehringer light units (BLU); mean over the file's lines of this peptide [1]: 412
normalised SPOT signal, Boehringer light units (BLU); mean over the file's lines of this peptide [2]: 222

B12: P53621 15-28 (peptide)
chain: LSFHPKRPWILTSL
normalised SPOT signal, Boehringer light units (BLU); mean over the file's lines of this peptide [1]: 23.4
normalised SPOT signal, Boehringer light units (BLU); mean over the file's lines of this peptide [2]: 121

B14: Q04727 335-349 (peptide)
chain: LRPVPGKPPGVDPL
normalised SPOT signal, Boehringer light units (BLU); mean over the file's lines of this peptide [1]: 66.4
normalised SPOT signal, Boehringer light units (BLU); mean over the file's lines of this peptide [2]: 32.5

B15: O60885 879-893 (peptide)
chain: LPPKPARPPAVSPA
normalised SPOT signal, Boehringer light units (BLU); mean over the file's lines of this peptide [1]: 215
normalised SPOT signal, Boehringer light units (BLU); mean over the file's lines of this peptide [2]: 4260

B16: Q9P2P9 1564-1577 (peptide)
chain: LRWGFSRPRKDKGL
normalised SPOT signal, Boehringer light units (BLU); mean over the file's lines of this peptide [1]: 259
normalised SPOT signal, Boehringer light units (BLU); mean over the file's lines of this peptide [2]: 102

B18: O95047 163-176 (peptide)
chain: LPLPFSRPQKIYHF
normalised SPOT signal, Boehringer light units (BLU); mean over the file's lines of this peptide [1]: 428
normalised SPOT signal, Boehringer light units (BLU); mean over the file's lines of this peptide [2]: 680

B22: Q9Y2E6 378-391 (peptide)
chain: LPVSLTRPPKLVLH
normalised SPOT signal, Boehringer light units (BLU); mean over the file's lines of this peptide [1]: 121
normalised SPOT signal, Boehringer light units (BLU); mean over the file's lines of this peptide [2]: 272

B25: P12270 2055-2069 (peptide)
chain: APQSPRRPPHPLPP
normalised SPOT signal, Boehringer light units (BLU); mean over the file's lines of this peptide [1]: 339
normalised SPOT signal, Boehringer light units (BLU); mean over the file's lines of this peptide [2]: 2810

B27: Q9H0F6 46-59 (peptide)
chain: LSADPERPGRFRLE
normalised SPOT signal, Boehringer light units (BLU); mean over the file's lines of this peptide [1]: 37.1
normalised SPOT signal, Boehringer light units (BLU); mean over the file's lines of this peptide [2]: 121

B28: Q9UNU2 285-298 (peptide)
chain: LRAMPSRPPRLLAT
normalised SPOT signal, Boehringer light units (BLU); mean over the file's lines of this peptide [1]: 5160
normalised SPOT signal, Boehringer light units (BLU); mean over the file's lines of this peptide [2]: 7160

B29: O95098 58-72 (peptide)
chain: LPLPPARPPVLHSS
normalised SPOT signal, Boehringer light units (BLU); mean over the file's lines of this peptide [1]: 1580
normalised SPOT signal, Boehringer light units (BLU); mean over the file's lines of this peptide [2]: 3620

B33: Q9Y6F2 30-43 (peptide)
chain: LPQWPRRPGRRWPA
normalised SPOT signal, Boehringer light units (BLU); mean over the file's lines of this peptide [1]: 820
normalised SPOT signal, Boehringer light units (BLU); mean over the file's lines of this peptide [2]: 7880

B37: Q96QH2 325-339 (peptide)
chain: LSDFPKKPPQPELG
normalised SPOT signal, Boehringer light units (BLU); mean over the file's lines of this peptide [1]: 64.9
normalised SPOT signal, Boehringer light units (BLU); mean over the file's lines of this peptide [2]: 95.7

B40: Q96LS1 115-128 (peptide)
chain: LQPRPRRPREAADT
normalised SPOT signal, Boehringer light units (BLU); mean over the file's lines of this peptide [1]: 371
normalised SPOT signal, Boehringer light units (BLU); mean over the file's lines of this peptide [2]: 329

The next lines start with the values.

normalised SPOT signal, Boehringer light units (BLU); mean over the file's lines of this peptide [1]: 38
normalised SPOT signal, Boehringer light units (BLU); mean over the file's lines of this peptide [2]: 62.4
B1: Q9NXY3 388-402 (peptide)
chain: LQLGPSRPPTGEAL

normalised SPOT signal, Boehringer light units (BLU); mean over the file's lines of this peptide [1]: 341
normalised SPOT signal, Boehringer light units (BLU); mean over the file's lines of this peptide [2]: 944
B4: Q96Q04 431-445 (peptide)
chain: LSERPPRPPPPPPP

normalised SPOT signal, Boehringer light units (BLU); mean over the file's lines of this peptide [1]: 28.9
normalised SPOT signal, Boehringer light units (BLU); mean over the file's lines of this peptide [2]: 41.8
B5: Q9NVU6 531-544 (peptide)
chain: LQRRLKRPETPTHD

normalised SPOT signal, Boehringer light units (BLU); mean over the file's lines of this peptide [1]: 75.1
normalised SPOT signal, Boehringer light units (BLU); mean over the file's lines of this peptide [2]: 95.9
B6: Q9Y4U3 288-301 (peptide)
chain: LPPDIERPYKAEPL

normalised SPOT signal, Boehringer light units (BLU); mean over the file's lines of this peptide [1]: 92.3
normalised SPOT signal, Boehringer light units (BLU); mean over the file's lines of this peptide [2]: 257
B9: P27815 35-48 (peptide)
chain: APRAPRRPRSPPSS

normalised SPOT signal, Boehringer light units (BLU); mean over the file's lines of this peptide [1]: 35.9
normalised SPOT signal, Boehringer light units (BLU); mean over the file's lines of this peptide [2]: 59.1
B10: Q96FL6 71-84 (peptide)
chain: LRRLLKRPELEEIF

normalised SPOT signal, Boehringer light units (BLU); mean over the file's lines of this peptide [1]: 37.9
normalised SPOT signal, Boehringer light units (BLU); mean over the file's lines of this peptide [2]: 97.1
B13: Q96JV6 461-474 (peptide)
chain: LRATLKRPEVIATS

normalised SPOT signal, Boehringer light units (BLU); mean over the file's lines of this peptide [1]: 7210
normalised SPOT signal, Boehringer light units (BLU); mean over the file's lines of this peptide [2]: 16200
B17: O43295 603-616 (peptide)
chain: LRPPPMRPVRPVVQ

normalised SPOT signal, Boehringer light units (BLU); mean over the file's lines of this peptide [1]: 170
normalised SPOT signal, Boehringer light units (BLU); mean over the file's lines of this peptide [2]: 184
B19: Q06481 479-492 (peptide)
chain: LQSDPPRPHRILQA

normalised SPOT signal, Boehringer light units (BLU); mean over the file's lines of this peptide [1]: 261
normalised SPOT signal, Boehringer light units (BLU); mean over the file's lines of this peptide [2]: 79
B20: P42694 1701-1715 (peptide)
chain: LPPLPHRPPQNPFV

normalised SPOT signal, Boehringer light units (BLU); mean over the file's lines of this peptide [1]: 41.3
normalised SPOT signal, Boehringer light units (BLU); mean over the file's lines of this peptide [2]: 77.6
B21: O15399 900-914 (peptide)
chain: AAPPPAKPPPPPQP

normalised SPOT signal, Boehringer light units (BLU); mean over the file's lines of this peptide [1]: 1320
normalised SPOT signal, Boehringer light units (BLU); mean over the file's lines of this peptide [2]: 14500
B23: Q9Y566 1372-1386 (peptide)
chain: APQPPPRPPSPRYE

normalised SPOT signal, Boehringer light units (BLU); mean over the file's lines of this peptide [1]: 26.4
normalised SPOT signal, Boehringer light units (BLU); mean over the file's lines of this peptide [2]: 21.1
B24: O94766 54-67 (peptide)
chain: LQAELRRPPPAPAQ

normalised SPOT signal, Boehringer light units (BLU); mean over the file's lines of this peptide [1]: 2320
normalised SPOT signal, Boehringer light units (BLU); mean over the file's lines of this peptide [2]: 8510
B26: Q9P0P4 137-151 (peptide)
chain: LPLPPPRPPLLSAR

normalised SPOT signal, Boehringer light units (BLU); mean over the file's lines of this peptide [1]: 1690
normalised SPOT signal, Boehringer light units (BLU); mean over the file's lines of this peptide [2]: 489
B30: Q16753 167-180 (peptide)
chain: LRQPLRRPFRPNGL

normalised SPOT signal, Boehringer light units (BLU); mean over the file's lines of this peptide [1]: 91.3
normalised SPOT signal, Boehringer light units (BLU); mean over the file's lines of this peptide [2]: 6220
B31: O14789 574-588 (peptide)
chain: LRKRPLKPPAKKIM

normalised SPOT signal, Boehringer light units (BLU); mean over the file's lines of this peptide [1]: 2180
normalised SPOT signal, Boehringer light units (BLU); mean over the file's lines of this peptide [2]: 220
B32: O95125 124-137 (peptide)
chain: LQKQPRRPRRWVTV

normalised SPOT signal, Boehringer light units (BLU); mean over the file's lines of this peptide [1]: 2420
normalised SPOT signal, Boehringer light units (BLU); mean over the file's lines of this peptide [2]: 4830
B34: Q9NWJ0 49-62 (peptide)
chain: LRPVPRRPSTWSRR

normalised SPOT signal, Boehringer light units (BLU); mean over the file's lines of this peptide [1]: 15300
normalised SPOT signal, Boehringer light units (BLU); mean over the file's lines of this peptide [2]: 24000
B35: Q9UKB5 52-66 (peptide)
chain: LPRSPPRPPRLWSF

normalised SPOT signal, Boehringer light units (BLU); mean over the file's lines of this peptide [1]: 307
normalised SPOT signal, Boehringer light units (BLU); mean over the file's lines of this peptide [2]: 820
B36: Q14957 973-987 (peptide)
chain: APQPPGRPPTPGPP

normalised SPOT signal, Boehringer light units (BLU); mean over the file's lines of this peptide [1]: 324
normalised SPOT signal, Boehringer light units (BLU); mean over the file's lines of this peptide [2]: 210
B38: O43611 94-107 (peptide)
chain: LQGIFTRPSKLTRQ

normalised SPOT signal, Boehringer light units (BLU); mean over the file's lines of this peptide [1]: 84.3
normalised SPOT signal, Boehringer light units (BLU); mean over the file's lines of this peptide [2]: 48.5
B39: Q96QS4 5-18 (peptide)
chain: LQFRIRRPRPPARG

normalised SPOT signal, Boehringer light units (BLU); mean over the file's lines of this peptide [1]: 41.9
normalised SPOT signal, Boehringer light units (BLU); mean over the file's lines of this peptide [2]: 194
B41: Q9H3P5 284-297 (peptide)
chain: LQRQLKRPRPVILD

normalised SPOT signal, Boehringer light units (BLU); mean over the file's lines of this peptide [1]: 23.3
normalised SPOT signal, Boehringer light units (BLU); mean over the file's lines of this peptide [2]: 38
B42: P19429 134-147 (peptide)
chain: LRGKFKRPTLRRVR
